The text below walks through data of patent publication US20240122909A1, “TREATMENTS OF HEREDITARY ANGIOEDEMA” (KALVISTA PHARMACEUTICALS LIMITED, priority 2021, published 2024).

The conditions of data set [1]: background, literature or label; cited from earlier work.
The conditions of data set [2]: phase 1 studies, repeat dosing; cited from earlier work.
For a further data set, the target named is plasma kallikrein (Homo sapiens, UniProt P03952). Put plainly: Inhibition of enzyme activity of pre-activated plasma (compound added after DXS). The class given is biochemical. The settings on record: added 3.5 minutes post DXS; compound 300, 1000, 3000 nM; C1-INH 3000 nM. Here is the method: The ability of the compound to inhibit the enzyme activity of pre-activated plasma was assessed by addition of the compound after DXS stimulation. Aliquots of plasma (20 μL) were mixed with a 2.5 μL solution containing […] fluorogenic substrate (H-DPro-Phe-Arg-AFC) and a 2.5 μL solution of dextran sulphate (DXS; 100 μg/mL) which acted as an activator of the plasma kallikrein-kinin pathway. Enzyme activity was immediately measured by monitoring the accumulation of fluorescence liberated from the substrate by substrate cleavage over 16 minutes. At 3.5 minutes post DXS addition 5 μl of inhibitors or water control are were added into each well. The compound was tested at concentrations of 300, 1000 and 3000 nM. C1-INH at a concentration of 3000 nM and vehicle controls were also included.
plasma kallikrein, sequence (P03952 391-638 limits assumed): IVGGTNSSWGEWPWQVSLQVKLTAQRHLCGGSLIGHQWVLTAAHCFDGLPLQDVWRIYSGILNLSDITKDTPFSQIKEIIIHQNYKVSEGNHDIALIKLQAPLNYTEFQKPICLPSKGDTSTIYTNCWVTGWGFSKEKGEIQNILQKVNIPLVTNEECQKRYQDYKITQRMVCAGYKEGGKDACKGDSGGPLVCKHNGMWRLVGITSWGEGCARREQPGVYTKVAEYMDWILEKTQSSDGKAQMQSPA
plasma kallikrein, sequence (P03952 20-390 partner limits assumed): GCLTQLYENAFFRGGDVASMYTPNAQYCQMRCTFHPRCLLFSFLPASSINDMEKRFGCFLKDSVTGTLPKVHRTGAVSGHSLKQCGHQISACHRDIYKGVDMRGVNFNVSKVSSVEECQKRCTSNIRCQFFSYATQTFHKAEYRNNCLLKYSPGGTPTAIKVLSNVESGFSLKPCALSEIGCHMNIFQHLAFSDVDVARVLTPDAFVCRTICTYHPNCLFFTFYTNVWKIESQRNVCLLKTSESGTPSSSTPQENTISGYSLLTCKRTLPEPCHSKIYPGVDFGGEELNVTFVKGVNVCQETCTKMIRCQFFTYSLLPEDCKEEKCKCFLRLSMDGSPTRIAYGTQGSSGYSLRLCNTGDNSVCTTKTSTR

For the molecule `N#Cc1cccc([C@@H](NCC2CC2)c2ccc(F)c(NC(=O)c3cc(C(F)(F)F)nn3-c3cccc(CN)c3)c2)c1` [Berotralstat], the reported adverse reactions result in data set [1] is reported as “higher doses were associated with more gastrointestinal adverse effects”.

For `COCc1nn(Cc2ccc(Cn3cc(F)ccc3=O)cc2)cc1C(=O)NCc1nccc(OC)c1F` [KVD824, 1-({4-[(5-fluoro-2-oxopyridin-1-yl)methyl]phenyl}methyl)-N-[(3-fluoro-4-methoxypyridin-2-yl)methyl]-3-(methoxymethyl)pyrazole-4-carboxamide], the pharmacokinetic profile entry in data set [2] is “consistent pharmacokinetic profile over repeat dosing”.

As for “C1-INH: C1 inhibitor (C1-INH, Sigma Cat #E0518), therapeutic benchmark for HAE [Compound C1-INH]”, in the data set with plasma kallikrein, the “inhibition of enzyme activity after activation of plasma” value is listed as “slower action”.

On to Ecallantide, for which the reported adverse reactions result in data set [1] is on record as “risk of anaphylactic reactions”.

B1: lanadelumab: recombinant fully human IgG1 kappa light chain monoclonal antibody, active substance of Takhzyro® (antibody, chains of the INN, looked up, V domains shown)
VH: EVQLLESGGGLVQPGGSLRLSCAASGFTFSHYIMMWVRQAPGKGLEWVSGIYSSGGITVYADSVKGRFTISRDNSKNTLYLQMNSLRAEDTAVYYCAYRRIGVPRRDEFDIWGQGTMVTVSS
VL: DIQMTQSPSTLSASVGDRVTITCRASQSISSWLAWYQQKPGKAPKLLIYKASTLESGVPSRFSGSGSGTEFTLTISSLQPDDFATYYCQQYNTYWTFGQGTKVEIK
For the molecule B1, the reported adverse reactions result in data set [1] was “hypersensitivity, injection site pain, injection site erythema, and injection site bruising”.
